Test: soluble on expression in E. coli; label from the status in PepcDB or PDB records

Sequence | soluble on expression in E. coli
PTPKTELVQKFRVQYLGMLPVDRPVGMDTLNSAIENLMTSSSKEDWPSVNMNVADATVTVISEKNEEEVLVECRVRFLSFMGVGKDVHTFAFIMDTGNQRFECHVFWCEPNAANVSEAVQAACSGPSSGIEGRGSSGSSGSSGSSGDAAVTPEERHLSKMQQNGYENPTYKFFEQMQN | soluble
MPYVDRQNRICGFLDIEDNENSGKFLRRYFILDTQANCLLWYMDNPQNLAVGAGAVGSLQLTYISKVSIATPKQKPKTPFCFVINALSQRYFLQANDQKDLKDWVEALNQASKITVPKAGTVPLATEVLKNLTAPPTLEKKPQVAYKTEIIGGVVVQTPISQNGGDGQEGCEPGTHAFLRRSQSYIPTSGCRPSTGPPLIKSGYCVKQGNVRKSWKRRFFALDDFTICYFKCEQDREPLRTIPLKDVLKTHECLVKSGDLLMRDNLFEIITTSRTFYVQADSPEDMHSWIEGIGAAVQALKCHPREPSFSRSISLTRPGSSTLTSAPNSILSRRRPPAEEKRGLCKAPSVASSWQPWTPVPQAEEKPLSVEHAPEDSLFMPNPGESTATGVLASSRVRHRSEPQHPKEKPFVFNLDDENIRTSDV | soluble
NKDWRINGYVNFSRNENKITELPANMVQENYSPKNGAYAARAEVGRPIGSFYGYRYKGVYQNTDATYARDAEGNVMNDAKGRPIVMKNLTATCQPGDAMYEDINHDGVINQYDIVYLGNANPTLTGGAGLTVKYKQFSINTFFHGRFGQSVVNTARMNNESMHGNANQSTAVLRRWKNEGDITDIPRALYGEGFNYLGSDRFVEDTSFLRLKQLTLNYAFPKSICNKLGITSLTCFVTGYNLFTWSSYTGQDPEVNLPSRPTDLATDGATTPVSRRYTFGFNLSF | not soluble
MGSDKIHHHHHHMDSYFLGVSLESLKSLPRQTNHLRLGLAMWSHYHWQDSVYGSTTKQAERLARYATIFNTVEGNTSFYATPNAQTMMNWLRATPDDFRFTFKLPQTITHQKQLQHCQQELLQFFQVMSPLAEKTGLWKIQLPAHFGPENLPALAQFLNQVPQGLTYGVEVRHAAFFAKGEAERALNRLLMDKQVNRIIMDSRPLFALPPANEAIIDTHKKKPRVPVHAIATANTPVVRFIGQPDDACSCTTRAARR | not soluble
MNRRVVIVTAVHGPSAPFLPEAYASLCAQELPDGWEWRWVIQEDGRTQDVRPHVPDDPRVVFHQGRHGRQGGPGVARTMALAHADGAYVKVLDADDRLTPGALARDLAALEADPSIGWATSRVLDLLPDGSTAGFPGDPAHGPIERGEVLDFWRANGFRAQVHPATLLVRRDLLLAVGGWMALPASEDTGLLLALNCVSRGWFTEDVGLLYRKWEGQETGQASHVDPAERDARMTVVEARARALASFGWRLPEGTGDFDHLEHHHHHH | not soluble
MAHELQLIKQSSGILIPATPETSEILQSKIKLGAVLVAEFRQVRNPAFHRRFFALLNLGFEYWEPTGGAISANERKLVNGYAKFLAAYGGNESALLDAAEQYLEQIANRRVTNGISLCKSFDAYRAWVTVEAGHYDAIQLPDGTLRKHPRSIAFSSMDEVEFQQLYKSALDVLWRWILSRTFRTQREAENAAAQLMSWAG | not soluble
MSLAKTIAYLRVSTSQQDLKNQKFEILDYAQKNGLSIDDFVEVEISSRKSVEERKIDYLVSMLSQGDRVIVSELSRIGRSTVEVLNIINELASKKVFLIAIKQNLNINGSENLQAKVMVTMFSLFAELERDLISDRTKRALEARKAAGVKLGRPKGATGVSKLDGMEGQITELLRKQVSLSSIAKIFSVSRGTVYSFIATRGLTAEGHHHHHH | not soluble
MSLRLKIGSPVFFKQVRPGLHGKPFTLYKFRTMTDERDSKGNLLPDEVRLTKTGRLIRKLSIDELPQLLNVLKGDLSLVGPRPLLMDYLPLYTEKQARRHEVKPGITGWAQINGRNAISWEKKFELDVWYVDNWSFFLDLKILCLTVRKVLVSEGIQQTNHVTAERFTGSGDVSSEGHHHHHH | not soluble
MAKYEILFKQLRLAILRGEYAPNDRLPSENAIAIKHGVSRITSKRALNELAAADLVYRVRGGGTFVKPHKSTTQRQILLVLPFPETTSFGDYPSGIQGTLAGTTWQLKLMANERFIQLNLDELASQYAGIIYYPQNLATELPILMRLYAQKMPLVVLDKQPAALAVPSVTSDNVAGGKIACEHLQSRGHHRIAFLPETPFWQTFTGTVSDRFLGYFNHLKLATSDAALPLRWAQALQACTTAVQLKAYIQAQRITAIIAENDVVALRALQRIQELTSNSDTSIALVGFDNLPAAARNNPALTTVVQDFAAIGAKAVEALLDQINNPEHLFDDQIVVGVKLMVRSSTNQY | not soluble
MAHHHHHHMRKVKKNKQVRNMLKSLTERVDTDDGENEYARLTQTPVVKMNLSKVKLKTSLQSVLVEPYTEKVKDFVAKTNYEISMEKTLLDEIKNANQNMDRIGDVLSARGGKQRKTRDNHHIMGRYFHYLRDKNEDFGLSFFPVYKTFKSNFSHFSDNLNSSLYPHELLEMGSMSSGNFLKNSSKRISFPERGDS | not soluble
MLPCRANCFTLEISLMHINIAWQDVDTVLLDMDGTLLDLAFDNYFWQKLVPETWGAKNGVTPQEAMEYMRQQYHDVQHTLNWYCLDYWSEQLGLDICAMTTEMGPRAVLREDTIPFLEALKASGKQRILLTNAHPHNLAVKLEHTGLDAHLDLLLSTHTFGYPKEDQRLWHAVAEATGLKAERTLFIDDSEAILDAAAQFGIRYCLGVTNPDSGIAEKQYQRHPSLNDYRRLIPSLM | not soluble
MGSDKIHHHHHHMKIAIITFFDNGNYGSELQTLAMNDYLNAKGHVTVFCKVKSSNKIIRAIELLYDKVLLKWYKITDKEKRQYLTDRAKNLSSQRNIPPKLRQYIHSFVNSHISFGCISRLLLFRKERFDAYICGSDQIWSALKMPLLPLNFLYGIDKKKKIAYAPSIGLDNPPYYYIREVEKYVKDFIYLSVREEDAKNVLKKQYGIEAMQVLDPTLLQGKGFWDSLLAIESKQVPTKPYVFCYFLGKLNEDIVTCINRIANGKCVMVLPYEEDCDLIKNGKYELADPLDFVNLIKHADYVLTDSFHGSIFSILYDKQFVVTKRTHVRRVSQTSRITSLLKIFNLQSQYCSGVDEIINALQNNIDYSFTHIQLEEEQRKSRLFLDGALNEIEKNIKS | not soluble
MGSDKIHHHHHHMNQTTLNTIRNYVMQASAQWISDFNQGNVQTCINRYLPSATMQVHPFGKFTSIEAIADFWLEFAKSNPSDLVYRNIEIKVLNDRQAVLSANWRMNIASGFISKELWTLAEDGQWYLEEDDFTVLAQHTKPVDDKRTALVLVDLQNDYFSGGRFELDNTDSAAKQASQLLAHFRQKELPVIHMQHLFEETNAAFFSANTVGAEIESSVKPTANEPVIIKHQIDSFIETTLEQTLVELGIDNLVIVGAMAQACVQTLCRSAVNKGYKCQVISDAIAAPKLEYQQHSFTGGQLVAANLLSLSFGGADITDTKGWLQENK | not soluble
MKEKKKEIEKLLARPDLTPEQMKNYGMEYAKIEEIENITNRIKETQEFIELLREEGENELEIEKYEKELDQLYQELLFLLSPEASDKAIVEIRPGTGGEEAALFARDLFRMYTRYAERKGWNLEVAEIHETDLGGIREVVFFVKGKNAYGILKYESGVHRVQRVPVTESGGRIHTSTATVAVLPEIEEKDIEIRPEDLKIETFRASGHGGQYVNKTESAVRITHLPTGIVVSCQNERSQYQNKQTALRILRARLYQLQKEQKEREISQKRKSQIGTGERSEKIRTYNFPQNRVTDHRINYTSYRLQEILDGDLDEIISKLIEHDIENNLEEVLGIGASVEEK | soluble
MSNQYDPSQPVVFTDFSPKEGGMRTRLYIEGSNFGNDPTKIHITIGGEKTKTIGADGKKIYCMVPSKAFDGIINVRVDGPDGKPIAEHTFEEEFKYTPATIVGTLLRKVDEDNNSAFQEGSFDEGASIPSNDCMVFDPKYKDGDNRLLFSSNHSDGLHLIDLTERTVKRLFPRTGYSTMYSFTFSADGDTLLFTDDHGQDNTTRANIYYSLRRENFRRIRPYNYGRTAYSLVYMDDGTIFYTTWWEGKVYKMIRNGAIPNIDENAEVAFSLSQISAVGGSHTILFRHPSNKFMYMLSDNFGAVFRADYDPVAKTFGNPSIIAGNMNDKSFKEGTGGSARFNKPQFGVFVKNEKYGEGIGPDNDQYDFYFCDRENHCIWKLDPHGVASLAAGRSNENADGKIWGYVDGNPLHEARFNQPAGLAYDPDTDMFYIGDIDNKGIRYMTTELEHHHHHH | not soluble
MGHHHHHHSHMPTTSRPALDVKGGTSPAKEDANQEMSSVAYSNLAVKDRKAVAILHYPGVASNGTKASGAPTSSSGSPIGSPTTTPPTKPPSFNLHPAPHLLASMQLQKLNSQYQGMAAATPGQPGEAGPLQNWDFGAQAGGAESLSPSAGAQSPAIIDSDPVDEEVLMSLVVELGLDRANELPELWLGQNEFDFTADFPSSC | not soluble
MPLDPICKKIISRDTEYFSDYGGKNYYFCSSECKHKFDALEKSVIRLKRNLSEKEKISFGKLKRDIIKPGICTLCGACAASCEYITIKDEKPELIGPCKACGVCYYQCPRTITTEEGLIGSFRYAYAAQSAIPEIKGQDGGVVTSLLLYALDEGLIDCAVVTVHSEEEPWKPVPIVAKTREEILKSSGSIYSHSMTLEALMSAVKQGMNSVAFVGTSCNIDAVTKMQKSSYGFLHLFMRAKVLKLGLFCMDTFAYEGIKAVLESYGITLDNVDAMKIRKGKFEVALKDGKEHIFELSEFDEYRSSSCRFCTDLTAENSDISFGGVGSPRGYTTVLARSAIGYEIFNEAIDNGYIEARQLTDDELEKVLNLAKMKKVQMYDLHRRQKTLEHHHHHH | not soluble
MAHHHHHHMKQSKLVSRPSKTKKPKERKDRREDERYQREMDALIAREVARENVSMRSDTHKPQPKLLEEVQKDTSRRPKTPTSLSTAAVEKQAKIDKESGFQPVVNQRKERQQQQHQQQQTSAPKPMLVNEALERKLNHFFSNLNRKEKLTRLSQPEENPTASKGATIIVRKDIANARSWQQQQQ | soluble
MRILYFDCFAGASGDMILGALLDLGIDVGIFKRELAGLNLDGFDIAVEKKVINSIAVTDVNVIVKEECNHHTGHHHHCERNLADIEKIIDESSLKDNVKRLSKKIFSEIARAEAKVHNKSIEDVHFHEVGAIDSIVDIVGTAICLDLLKVDKIYSSPMHDGTGFIECQHGKLPVPVPAVLEMLKESNIPYITEDVNTELLTPTGLGIIKCVASKFGPMPPMTIEKVGYGAGKRQTGRFNALRCILGNAKEKEKIDDEICMLETNIDDMNPEILGYVMNRLFENGALDVFYTPVYMKKNRPGVLLTVLTDKEHEEKLVDIILTETTTLGIRKTTAQRYVLEREIKHVNTEFGKIRVKESSFGDYKKYSPEFEDCKKVAQELKIPLSKVYDAVNKAILVFEERNENALQ | soluble
MAHHHHHHMVFSTHGIRVVYNTANVDRSLYAVVHCSDGKYAEVSKDHLNRLKFIEKSSEEEDIEFDYPEAVLESLAQWTLKYGMDGVAVSSTVRPCIYRNVQHVLKDDWEREFFTTRLMNDLNIMHYLQTINAAEKYEMKGFHDFLCVCLSCKLRNEEDTELVHKIMGLEDFVEIGPSDLDEAACRYTWLDQAIKPTVRR | not soluble
GKLDEFEAWMRTITKLDIVSLMDFNWGKGGLIKGEKVMNRLGDILGDLHIEDLSIPYTAVAADISNEKEVWLQKGSLLQAIRASISLPLYLMPIEFNGKTLIDGGVLNPVPIA | not soluble
MVEPQHNVMQMGGDFANNPNAQQFIDKMVNKHGFDRQQLQEILSQAKRLDSVLRLMDNQAPTTSVKPPSGPNGAWLRYRKKFITPDNVQNGVVFWNQYEDALNRAWQVYGVPPEIIVGIIGVETRWGRVMGKTRILDALATLSFNYPRRAEYFSGELETFLLMARDEQDDPLNLKGSFAGAMGYGQFMPSSYKQYAVDFSGDGHINLWDPVDAIGSVANYFKAHGWVKGDQVAVMANGQAPGLPNGFKTKYSISQLAAAGLTPQQPLGNHQQASLLRLDVGTGYQYWYGLPNFYTITRYNHSTHYAMAVWQLGQAVALARVQ | soluble

Reference: the DeepSol protein solubility set
